Laboratory results as given in PMC7801515.

Legend:
Assay in all cases: flow cytometry on cells
[1] = target: SARS-CoV-2 S glycoprotein T415A, full-length, cell surface-expressed (SARS-CoV-2) (UniProt P0DTC2)
[2] = target: SARS-CoV-2 S glycoprotein Y421A, full-length, cell surface-expressed (SARS-CoV-2) (UniProt P0DTC2)
[3] = target: SARS-CoV-2 S glycoprotein Y473A, full-length, cell surface-expressed (SARS-CoV-2) (UniProt P0DTC2)
[4] = target: SARS-CoV-2 S glycoprotein R457A, full-length, cell surface-expressed (SARS-CoV-2) (UniProt P0DTC2)

Measured: percent reduction in binding (MFI relative to wild type)

P2C-1F11 monoclonal antibody
> 50%: all assays above
